Experimental data as given in article PMC4990646, “DELLA proteins are common components of symbiotic rhizobial and mycorrhizal signalling pathways” (Nature Communications, 2016).

B1: HIS-MtDELLA2 (natural protein, M. truncatula, UniProt A0A396GMX6 1-533, looked up)
chain: MKREHKLEHEDMSSGSGKSGVCWEDDGGGMDELLAVVGYKVKSSDMAEVAQKLEQLEQAMMGNNFHDHDESTIAQHLSNDTVHYNPSDISNWLQTMLSNFDPQPNNPSVNSDDNDLNAIPGKAIYAADEFTSRKRVKRNESVTVTTESTTTRPIMVVETQEKGIRLVHSLMACAEAVEQNNLKMAEALVKQIGYLAVSQEGAMRKVATYFAEGLARRIYGVFPQHSVSDSLQIHFYETCPNLKFAHFTANQAILEAFQGKSSVHVIDFSINQGMQWPALMQALALRPGGPPAFRLTGIGPPASDNSDHLQQVGWRLAQFAQTIHVQFEYRGFVANSLADLDASMLELRSPETESVAVNSVFELHKLNARPGALEKVFSVIRQIRPEIVTVVEQEANHNGPAFLDRFTESLHYYSTLFDSLEGSSVEPQDKAMSEVYLGKQICNVVACEGTDRVERHETLNQWRNRFNSAGFSPVHLGSNAFKQASMLLALFAGGDGYKVEENDGCLMLGWHTRPLIATSAWKLAAANSVVVSH
notes: MtDELLA2 of Medicago truncatula; the trigger factor is inferred from the vector pCold-TF; also called HIS-tagged MtDELLA2; source: E. coli, purified (Ni-NTA Agarose); not shown: His tag, N-terminal, kept
B2: MBP-IPD3 (natural protein, M. truncatula, UniProt A7TUE1 1-513, looked up)
chain: MEGRGFSGLYKNSSEELFLKTVMESPIGMPVPTMEMLGFKTVSQSFRTDSEELFKRWLTNDQEGYNSSSMGLNSRLSKRISTEIANMSNQQHIGVASEGRNNDKSCLQNNFLANDVSSDFNFPIRDPVDRELQSSNLFLAKAWFITDQRMTRSRSSELRRRYTEMQNSQAPQGLDSMFMVPEHDTNTIKEELANFNGFDYLSMCELPSQKGTFMSPSNSSSSTFNTHQLVDVDKVSSCVSMLKGTLQRKKLECQVEKEAAEDGLNEIFCIREPLFQSAFNEEESWNQQKLVNVQGDFTDQVNDPGVMQTLEGTTNFVLDGFANQTNQIQGRTASGEPSQSESSAAAPVISSGLDACEGPSNSNQTLGDSSWKQVGESTQNKVRGVREQIMDNLKDDRKRKSLERYGSVTSAVSDGKMDNTKKRRVERSRKMAEAKERNLTPTIPSDMQAILKRCENLEKEVRSLKLNLSFMNRKDSEQTKQIEDLQKQNEDLADEKERLLEEIERILSETGKI
notes: IPD3 (CYCLOPS) of Medicago truncatula; also called MBP-IPD3 fusion protein; source: E. coli, purified (amylose resin), held on the resin; not shown: MBP, N-terminal, kept
B3: HIS-MtDELLA1 (natural protein, M. truncatula, UniProt A0A396IUP1 1-594, looked up)
chain: MKREHQESFGGGVISNNNKTNTNHLNSSKNINFGECSSMQNTNTKQNMWREEKETNGGGMDELLAALGYKVRSSDMADVAQKLEQLEMVMGSAQEEGINHLSSDTVHYDPTDLYSWVQTMLTELNPDSSQINDPLASLGSSSEILNNTFNDDSEYDLSAIPGMAAYPPQEENTAAKRMKTWSEPESEPAVVMSPPPAVENTRPVVLVDTQETGVRLVHTLMACAEAIQQKNLKLAEALVKHISLLASLQTGAMRKVASYFAQALARRIYGNPEETIDSSFSEILHMHFYESSPYLKFAHFTANQAILEAFAGAGRVHVIDFGLKQGMQWPALMQALALRPGGPPTFRLTGIGPPQADNTDALQQVGWKLAQLAQTIGVQFEFRGFVCNSIADLDPNMLEIRPGEAVAVNSVFELHTMLARPGSVEKVLNTVKKINPKIVTIVEQEANHNGPVFVDRFTEALHYYSSLFDSLEGSNSSSNNSNSNSTGLGSPSQDLLMSEIYLGKQICNVVAYEGVDRVERHETLTQWRSRMGSAGFEPVHLGSNAFKQASTLLALFAGGDGYRVEENNGCLMLGWHTRSLIATSAWKLPQNESK
notes: MtDELLA1 of Medicago truncatula; the trigger factor is inferred from the vector pCold-TF; also called HIS-tagged MtDELLA1; source: E. coli, purified (Ni-NTA Agarose); not shown: His tag, N-terminal, kept

Columns and labels:
Assay in all cases: pull-down; MBP fusion on amylose resin captures purified HIS-tagged MtDELLA; western blot with anti-MBP and anti-HIS
Details in all cases: both partners purified
MBP-NSP2 = molecular target: T1, MBP-NSP2 (M. truncatula, UniProt Q5NE24 1-508)
T1 construct: NSP2 of Medicago truncatula; source: E. coli, purified (amylose resin), held on the resin; not shown: MBP, N-terminal, kept

HIS-MtDELLA1 = molecular target: B3
HIS-MtDELLA2 = molecular target: B1

T1 sequence (Q5NE24 whole entry, the tested form may be a part): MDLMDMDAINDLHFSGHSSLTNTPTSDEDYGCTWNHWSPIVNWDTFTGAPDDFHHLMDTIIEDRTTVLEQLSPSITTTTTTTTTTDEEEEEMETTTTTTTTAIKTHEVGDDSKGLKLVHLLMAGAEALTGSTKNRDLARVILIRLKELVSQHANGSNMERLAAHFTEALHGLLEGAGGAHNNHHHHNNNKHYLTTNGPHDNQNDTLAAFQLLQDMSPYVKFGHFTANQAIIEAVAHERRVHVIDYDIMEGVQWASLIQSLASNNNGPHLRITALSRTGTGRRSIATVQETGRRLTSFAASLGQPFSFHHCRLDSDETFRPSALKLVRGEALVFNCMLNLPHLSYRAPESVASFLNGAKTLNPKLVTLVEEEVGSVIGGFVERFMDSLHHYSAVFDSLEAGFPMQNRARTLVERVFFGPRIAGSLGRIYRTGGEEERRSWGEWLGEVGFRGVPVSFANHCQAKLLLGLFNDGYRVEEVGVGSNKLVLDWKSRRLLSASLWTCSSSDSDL

Binder | binding result (MBP-NSP2) | binding result (HIS-MtDELLA1) | binding result (HIS-MtDELLA2)
B1 | binds | – | –
B2 | – | binds | binds
B3 | binds | – | –
